Experimental findings from patent publication US20260028391A1 (HUMABS BIOMED, published 2026) are described below.

Test [1] deals with fusion glycoprotein (F) of RSV A/A2/61 (respiratory syncytial virus A/A2/61, UniProt P03420 26-574). Put plainly: cell-based or functional assay.
The target in test [2] is fusion glycoprotein (F) of RSV B/9727 (respiratory syncytial virus B/9727). Kind of test: cell-based or functional assay.
For test [3], the target named is RSV A Randall fusion glycoprotein (F) (RSV A, strain Randall). Put plainly: cell-based or functional assay.
Another test addresses RSV-B B9320 F protein (RSV B, strain B9320). Put plainly: cell-based or functional assay.
Test [4] has as its target T1, RSV fusion glycoprotein (RSV-F) (respiratory syncytial virus).
T1 construct: also called RSV-F wt
Put plainly: biolayer interferometry (BLI), rIgG1 with M428L/N434S.

Test [5] addresses T2, MPV fusion glycoprotein with the D280N mutation (MPV-F N280) (metapneumovirus).
T2 construct: also called MPV F D280N; MPV-F D280N
Described as above.

The target in test [6] is T3, MPV fusion glycoprotein without the D280N mutation (MPV-F D280) (metapneumovirus).
T3 construct: also called MPV F Non-D280N; MPV-F wt
The description is as above.

Test [7] deals with fusion glycoprotein (F) of the RSV used in the GFP-based neutralization assay of Table 23 (respiratory syncytial virus). Kind of test: cell-based or functional assay.
Test [8] has as its target fusion glycoprotein (F) of the MPV (non-D280N) used in the GFP-based neutralization assay of Table 23 (metapneumovirus). Kind of test: cell-based or functional assay.
Test [9] addresses T1, RSV fusion glycoprotein (RSV-F). Put plainly: SPR; F protein loaded on streptavidin sensors, mAb in solution.
Protocol: (§1) Binding affinity of mAbs for RSV-F protein, MPV-F D280 protein, and MPV-F N280 F variant protein was assessed using surface plasmon resonance (SPR).
For test [10], the target named is T2, MPV fusion glycoprotein with the D280N …. Described as above.
Protocol: as §1
Test [11] has as its target T3, MPV fusion glycoprotein without the …. The test is described as above.
Protocol: as §1
Another test has as its target T4, DS-Cav1 RSV F (respiratory syncytial virus).
T4 construct: also called DC-VCav1
Kind of test: ELISA on DS-Cav1 RSV F. (In general: In an ELISA, binding on a coated surface is turned into a signal by an enzyme label.)

Test [12] concerns the target fusion glycoprotein (F) of MPV A1/6621 (metapneumovirus A1/6621). Put plainly: cell-based or functional assay.
For test [13], the target named is T5, RSV fusion glycoprotein (RSV-F), pre-fusion conformation, recombinant protein loaded on sensors (respiratory syncytial virus (RSV), …).
T5 construct: also called RSV-F wt; RSV-F protein
Put plainly: same manner as Experiment 1 (Example 6, Experiment 4).

Test [14] deals with T6, biot-RSV-F wt (respiratory syncytial virus (RSV)). Put plainly: BLI (Octet), biotinylated F on SA sensors, mAb 5 µg/ml. For orientation: BLI is a label-free optical method that tracks binding on a fibre tip over time.
The target of test [15] is T7, RSV F expressed on transfected Expi293F cells (respiratory syncytial virus (RSV)). Kind of test: flow cytometry, transfected Expi293F cells, fixed and permeabilised. For orientation: Flow cytometry measures light scatter and fluorescence of single cells or particles in a stream.
The target in test [16] is T6, biot-RSV-F wt. Kind of test: BLI, SA sensor loaded with biot-RSV-F wt, mAb 5 ug/ml, 4 min association, 6 min dissociation.
For test [17], the target named is T5, RSV fusion glycoprotein (RSV-F), …. Kind of test: method not said in the sentence; RSV-A as printed.
Test [18] addresses T7, RSV F expressed on transfected Expi293F …. Put plainly: flow cytometry, transfected Expi293F cells, fixed and permeabilised. This is another data set of the same source.
The target of test [19] is T6, biot-RSV-F wt. Put plainly: BLI, SA sensor loaded with biot-RSV-F wt, mAb 5 ug/ml, 4 min association, 6 min dissociation. This is another data set of the same source.

B1: MPH12 (antibody, IgG1, V domains shown)
VH: QVQLVESGGGLVKPGGSLRLSCVASGFTFSGFYMKWIRQAPGKGLEWVSSISASGSYTNYADSVEGRFTVSRDNAKNSLFLLMSSLRAEDTAVYYCARGDSYCGASACHGEFFHKWGQGTLVTVSS
VL: QSVLTQPPSVSGAPGQRVTISCTGSDSNIGADFDVHWYQQLPGTAPKLLIYGNINRPSGVPDRFSGSRSGTSAFLAITRLQAEDEADYYCQSYDRSLHYVFGAGTKVTVL
notes: also called WT; parental MPH12-wt
A word on the Kd: it is the constant that tells how readily two partners part at equilibrium. As a reminder, the EC50 is the concentration needed to bring the measured effect to its halfway point. A low value points to greater potency. For the molecule B1, the “RSV IC50 (ng/ml), neutralization of A/A2” value in [1] stood at 142 ng/mL. Moreover, the “RSV IC50 (ng/ml), neutralization of B/9727” value in test [2] was determined as 19.9 ng/mL. Also, in test [3], the “RSV IC50 (ng/ml), neutralization of A/Randall” value was determined as 23.1 ng/mL. Further, the “RSV IC50 (ng/ml), neutralization of B/9320” value with RSV-B B9320 F protein is 3.29 ng/mL. In addition, the equilibrium dissociation constant (Kd) in [4] was determined as 0.42 nM; in [5] it was 1.1 nM; in test [6], 0.026 nM; in test [9] it was 0.75 nM; in [10], 1.7 nM; in [11], 1 pM. Besides, the “RSV IC 50 (ng/mL), GFP-based in vitro neutralization” value in test [7] amounted to 47.7 ng/mL. Besides, the “MPV IC50 (ng/mL), GFP-based in vitro neutralization” value in test [8] is 24.6 ng/mL. Also, in the test with DS-Cav1 RSV F, the midpoint of the response, the EC50, lay at 0.0326 µg/mL. Further, the “MPV IC50 (nM), neutralization of MPV A1/6621” value in [12] amounted to 0.0671 nM.

B2: MPK36-v3 (antibody, V domains shown)
VH: EVQLVESGGGLVKPGGSLRLSCAASFTISGYYMIWIRQAPGKGLEWISYISGSSTYTNYADSVKGRFTISRDNGQNTLYLHMTSLRADDTALYYCATEQTPSPGPFDLWGQGTLVTVSS
VL: QTVVTQPPSVSGAPGQRVTISCSGTSSNIGAGYDVHWYQQFPGTSPKLLIYRNFNRPSGVPDRFSGSKSGSSASLAIAGLQAEDEADYYCQSYDKSLDGWVFGGGTKVTVL
notes: also called MPK36-v3-rIgG1-LS
Regarding B2, the Kd in [13] was ~1 pM.

B3: MPK77-v1.1-rIgG1m17,1-LS (antibody, V domains shown)
VH: QVQLVESGGGLVKPGGSLRLSCAASKSFSGYYMIWIRQAPGRGLEWIADISGSSTYTDYADSVKGRFTISRDNTRNTLYLQMNSLRPEDTAVYYCATEQVPSPGPFDLWGPGTLVTVSS
VL: QSVLTQPPSVSGAPGQRVIISCTGSSSNIGAGYDVHWYQQFPGTSPKLLIYRNTNRPSGVPDRFSGFKSGASAALAITGLQAEDEADYYCQSYDRSLSGWAFGGGTKVTVL
notes: called the parental mAb (v1.1); also called MPK77-v1.1-rIgG1-LS
On to B3, for which the Kd with biot-RSV-F wt [14] and with biot-RSV-F wt [16] was < 1 pM each time. For the same molecule, in [15], the “Binding (FACS) relative to parental mAb MPK77-v1.1” value was found to be 1.

B4: MPK65-v2 (antibody, human IgG1, V domains shown)
VH: QVPLVQSGAEVKKPGESLKISCKGSGYSFINYWIGWVRQMPGKGLEWMGVIYPFDSDTKYSPSFQGHVTISADKSSNTAYVQWSSLKASDTAMYYCARFTFGIAVVTDDVSGEGQAFEIWGQGTMVTVSS
VL: EIVMMQSPATLSVSPGERATLSCRASQSVAGNLAWYQQRPGQAPRLLIYGASTRATGVPARFSGSGSETEFTLTISSLQSEDFAVYYCHQYSNWPQAFGQGTRLDIK
notes: also called MPK65-v2-rIgG1-LS
Take B4: the Kd in [17] is < 0.1 nM.

B5: MPK51-v1.1-rIgG1m17,1-LS (antibody, V domains shown)
VH: QVQLVESGGGLVKPGGSLRLSCAASGFRISGYYMIWVRQAPGKGLEWISAISGMSSYITYADSVKGRFTVSRDNGQNSLFLEMKSLRGEDTAVYFCAREEVPSPGPFDLWGQGTPVTVSS
VL: QSVVTQPPSVSGAPGQRVTIFCTGSTSNIGAGYDVHWYQHLPGTAPRLLIFRNNNRPSGVPDRFSGFKSGTSASLAIIGLQVEDEADYYCQSYDRNMDGWAFGGGTKLTVL
notes: called the parental mAb (v1.1)
Take B5: the “Binding (FACS) relative to parental mAb MPK51-v1.1” value in test [18] was 1. Besides, the Kd in the test with biot-RSV-F wt [19] was < 1 pM.
